In patent US20140274782A1, “AFFINITY REAGENTS AND METHODS FOR DETECTION, PURIFICATION, AND PROTEOMIC ANALYSIS OF METHYLATED PROTEINS” (The Board of Trustees of the Leland Stanford Junior …, priority 2013, published 2014):
One block for each substance: values may come before it.

Tests used:
[1] = biological target: T1, G9a and GLP (Homo sapiens, UniProt Q96KQ7+Q9H9B1); assay: Triple SILAC pull-down after UNC0638 treatment of 293T cells, DMSO/UNC0638 ratio of protein captured by 3×MBT; assay type: cell-based; conditions: for Protein Ratios DMSO/UNC0638: SILAC ratio of protein captured by 3xMBT, 293T cells treated 24 hours with UNC0638 at 2.5 μM or DMSO; for Relative to UNC0638 UNC Heavy: UNC0638 in heavy SILAC media; for Relative to UNC0638 UNC Light: UNC0638 in light SILAC media; for Relative to UNC0638 Average: average of UNC Light and UNC Heavy experiments; for Candidate G9a/GLP target: reduced association with 3xMBT after UNC0638 treatment;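 for all read-outs here: mass spectrometry (Q-Exactive) SILAC quantitation, DMSO/UNC0638 ratio computed after subtracting 3×MBTD355N mutant pull-down background, only proteins with at least twofold 3×MBT over mutant signal considered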
T1 construct: endogenous in cells; host or cells: HEK 293T
T1 sequence (Q96KQ7 2-1210 limits assumed): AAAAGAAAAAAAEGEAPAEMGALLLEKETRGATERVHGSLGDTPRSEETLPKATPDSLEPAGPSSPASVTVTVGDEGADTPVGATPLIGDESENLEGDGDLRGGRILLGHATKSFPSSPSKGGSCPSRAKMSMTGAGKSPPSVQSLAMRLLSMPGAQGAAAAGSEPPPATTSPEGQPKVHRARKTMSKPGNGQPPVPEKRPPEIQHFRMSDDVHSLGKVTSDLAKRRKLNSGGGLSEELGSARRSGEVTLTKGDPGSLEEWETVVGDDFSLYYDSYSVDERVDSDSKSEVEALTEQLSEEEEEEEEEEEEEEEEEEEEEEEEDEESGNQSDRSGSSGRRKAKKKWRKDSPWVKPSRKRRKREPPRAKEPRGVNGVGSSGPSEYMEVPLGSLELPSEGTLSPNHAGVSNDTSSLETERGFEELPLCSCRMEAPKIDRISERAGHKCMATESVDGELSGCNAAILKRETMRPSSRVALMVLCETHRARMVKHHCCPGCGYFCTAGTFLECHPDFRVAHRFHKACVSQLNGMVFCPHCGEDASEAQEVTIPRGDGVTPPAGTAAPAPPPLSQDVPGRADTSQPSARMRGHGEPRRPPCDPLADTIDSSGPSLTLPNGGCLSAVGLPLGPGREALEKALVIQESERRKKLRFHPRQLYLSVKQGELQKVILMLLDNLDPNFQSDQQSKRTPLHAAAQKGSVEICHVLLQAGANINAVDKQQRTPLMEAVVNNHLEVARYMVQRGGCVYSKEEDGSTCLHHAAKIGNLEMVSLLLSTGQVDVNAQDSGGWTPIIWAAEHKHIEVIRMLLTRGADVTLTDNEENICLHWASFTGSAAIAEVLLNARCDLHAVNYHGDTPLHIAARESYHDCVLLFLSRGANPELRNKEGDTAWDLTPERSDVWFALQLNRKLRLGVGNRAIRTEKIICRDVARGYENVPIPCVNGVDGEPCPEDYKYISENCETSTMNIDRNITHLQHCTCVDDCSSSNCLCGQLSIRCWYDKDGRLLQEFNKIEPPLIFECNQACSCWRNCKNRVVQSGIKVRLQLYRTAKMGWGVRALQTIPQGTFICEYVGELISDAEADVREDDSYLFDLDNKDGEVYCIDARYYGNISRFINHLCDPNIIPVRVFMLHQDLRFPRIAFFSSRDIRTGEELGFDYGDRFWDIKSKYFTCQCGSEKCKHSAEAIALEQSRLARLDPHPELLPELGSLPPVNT
T1 sequence (Q9H9B1 2-1298 limits assumed): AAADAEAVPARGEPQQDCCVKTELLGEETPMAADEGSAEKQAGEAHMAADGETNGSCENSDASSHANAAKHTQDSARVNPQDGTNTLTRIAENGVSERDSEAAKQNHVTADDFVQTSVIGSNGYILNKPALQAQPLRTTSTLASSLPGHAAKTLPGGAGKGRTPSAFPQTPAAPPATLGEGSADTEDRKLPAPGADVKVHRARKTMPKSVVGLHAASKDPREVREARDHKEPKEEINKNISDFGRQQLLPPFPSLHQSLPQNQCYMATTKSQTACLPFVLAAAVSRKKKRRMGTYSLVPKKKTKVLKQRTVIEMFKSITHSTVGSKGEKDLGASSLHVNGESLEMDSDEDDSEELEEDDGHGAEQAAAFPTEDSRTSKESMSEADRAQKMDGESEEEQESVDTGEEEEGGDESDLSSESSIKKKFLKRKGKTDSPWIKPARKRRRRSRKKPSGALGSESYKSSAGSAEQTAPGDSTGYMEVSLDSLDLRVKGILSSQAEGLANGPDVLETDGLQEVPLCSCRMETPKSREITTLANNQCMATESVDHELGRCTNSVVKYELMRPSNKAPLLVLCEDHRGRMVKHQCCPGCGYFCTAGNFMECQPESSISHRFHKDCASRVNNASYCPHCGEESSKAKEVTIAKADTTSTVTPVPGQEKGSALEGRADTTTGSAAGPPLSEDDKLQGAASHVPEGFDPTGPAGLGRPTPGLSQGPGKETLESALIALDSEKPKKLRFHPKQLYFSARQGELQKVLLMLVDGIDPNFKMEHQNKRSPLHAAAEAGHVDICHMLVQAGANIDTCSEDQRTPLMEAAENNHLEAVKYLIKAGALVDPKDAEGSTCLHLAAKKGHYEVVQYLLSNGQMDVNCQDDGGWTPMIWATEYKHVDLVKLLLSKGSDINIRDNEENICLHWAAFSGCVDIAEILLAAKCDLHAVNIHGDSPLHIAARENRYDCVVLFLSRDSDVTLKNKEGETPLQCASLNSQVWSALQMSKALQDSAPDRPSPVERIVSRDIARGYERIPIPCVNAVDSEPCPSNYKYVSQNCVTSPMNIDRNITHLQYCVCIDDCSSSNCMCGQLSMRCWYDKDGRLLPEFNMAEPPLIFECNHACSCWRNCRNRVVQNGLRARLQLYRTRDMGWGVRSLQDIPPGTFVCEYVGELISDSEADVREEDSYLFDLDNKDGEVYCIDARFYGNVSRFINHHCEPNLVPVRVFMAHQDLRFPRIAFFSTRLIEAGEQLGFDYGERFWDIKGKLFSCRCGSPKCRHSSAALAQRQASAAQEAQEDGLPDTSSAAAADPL

[2] = tested on: 3×MBT domain of L3MBTL1; assay: Triple SILAC pull-down, 3xMBT/3xMBTD355N ratio (cytoplasmic, nuclear and chromatin fractions of 293T cells); assay type: binding, human; conditions: for Protein Ratios 3xMBT/D355N: pull-down by 3xMBT vs 3xMBTD355N; for 3xMBT/D355N UNC Heavy: experiment with UNC0638 in heavy SILAC media; for 3xMBT/D355N UNC Light: experiment with UNC0638 in light SILAC media;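 for all read-outs here: proteins quantified with MaxQuant, requiring at least two unique peptides and quantification in both label directions, normalized to the mean of proteins from a digested loading control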
[3] = SILAC ratio DMSO relative to UNC0638, pull-down with 3xMBT, all values in log base 2
[4] = SILAC ratio 3xMBT vs 3xMBTD355N pull-down, 293T cells, all values in log base 2
[5] = SILAC ratio DMSO/UNC0638 of protein pulled down with 3xMBT
[6] = SILAC ratio, pull-down 3xMBT vs 3xMBTD355N

Substance: 60S ribosomal protein L5
Protein Ratios DMSO/UNC0638 [1]: 1.4
Protein Ratios 3xMBT/D355N ([2]; SILAC ratio, 293T cells): 2.3

Substance: ANXA2
Relative to UNC0638 UNC Heavy [1, 3]: 0.38 log base 2
Relative to UNC0638 UNC Light [1, 3]: −0.31 log base 2
Relative to UNC0638 Average ([1]; all values in log base 2): 0.04 log base 2
3xMBT/D355N UNC Heavy [2, 4]: 2.86 log base 2
3xMBT/D355N UNC Light [2, 4]: 2.78 log base 2

Substance: CD3EAP
Relative to UNC0638 UNC Heavy [1, 3]: −0.02 log base 2
Relative to UNC0638 UNC Light [1, 3]: 0.01 log base 2
Relative to UNC0638 Average ([1]; all values in log base 2): 0.00 log base 2
3xMBT/D355N UNC Heavy [2, 4]: 2.30 log base 2
3xMBT/D355N UNC Light [2, 4]: 1.86 log base 2

Substance: CLTC
Relative to UNC0638 UNC Heavy [1, 5]: 0.24 log base 2
Relative to UNC0638 UNC Light [1, 5]: 0.65 log base 2
Relative to UNC0638 Average [1]: 0.44 log base 2
Candidate G9a/GLP target [1]: ✓
3xMBT/D355N UNC Heavy [2, 6]: 2.19 log base 2
3xMBT/D355N UNC Light [2, 6]: 2.98 log base 2

Substance: CSDA
Relative to UNC0638 UNC Heavy [1, 5]: 0.30 log base 2
Relative to UNC0638 UNC Light [1, 5]: 0.73 log base 2
Relative to UNC0638 Average [1]: 0.52 log base 2
Candidate G9a/GLP target [1]: ✓
3xMBT/D355N UNC Heavy [2, 6]: 3.85 log base 2
3xMBT/D355N UNC Light [2, 6]: 3.10 log base 2

Substance: CSNK2B
Relative to UNC0638 UNC Heavy [1, 3]: 0.21 log base 2
Relative to UNC0638 UNC Light [1, 3]: −0.01 log base 2
Relative to UNC0638 Average ([1]; all values in log base 2): 0.10 log base 2
3xMBT/D355N UNC Heavy [2, 4]: 2.83 log base 2
3xMBT/D355N UNC Light [2, 4]: 2.65 log base 2

Substance: CTBP2
Relative to UNC0638 UNC Heavy [1, 5]: 0.50 log base 2
Relative to UNC0638 UNC Light [1, 5]: 0.15 log base 2
Relative to UNC0638 Average [1]: 0.32 log base 2
3xMBT/D355N UNC Heavy [2, 6]: 1.97 log base 2
3xMBT/D355N UNC Light [2, 6]: 1.74 log base 2

Substance: DDX21
Relative to UNC0638 UNC Light [1, 5]: 0.14 log base 2
Relative to UNC0638 Average [1]: 0.14 log base 2
3xMBT/D355N UNC Heavy [2, 6]: 0.55 log base 2
3xMBT/D355N UNC Light [2, 6]: 1.00 log base 2

Continued, in another order:

Relative to UNC0638 UNC Heavy [1, 3]: 0.22 log base 2
Relative to UNC0638 UNC Light [1, 3]: −0.04 log base 2
Relative to UNC0638 Average ([1]; all values in log base 2): 0.09 log base 2
Substance: ABCF1
3xMBT/D355N UNC Heavy [2, 4]: 2.36 log base 2
3xMBT/D355N UNC Light [2, 4]: 2.94 log base 2

Protein Ratios DMSO/UNC0638 [1]: 1.4
Substance: ATP-dependent DNA helicase Q1
Protein Ratios 3xMBT/D355N ([2]; SILAC ratio, 293T cells): 18.8

Relative to UNC0638 UNC Heavy [1, 5]: 0.15 log base 2
Relative to UNC0638 UNC Light [1, 5]: 0.14 log base 2
Relative to UNC0638 Average [1]: 0.15 log base 2
Substance: BUB3
3xMBT/D355N UNC Heavy [2, 6]: 2.75 log base 2
3xMBT/D355N UNC Light [2, 6]: 3.26 log base 2

Relative to UNC0638 UNC Heavy [1, 5]: 0.26 log base 2
Relative to UNC0638 UNC Light [1, 5]: 0.27 log base 2
Relative to UNC0638 Average [1]: 0.27 log base 2
Substance: CAMK2D
3xMBT/D355N UNC Heavy [2, 6]: 1.96 log base 2
3xMBT/D355N UNC Light [2, 6]: 2.82 log base 2

Relative to UNC0638 UNC Heavy [1, 5]: 0.19 log base 2
Relative to UNC0638 UNC Light [1, 5]: 0.07 log base 2
Relative to UNC0638 Average [1]: 0.13 log base 2
Substance: CFL1
3xMBT/D355N UNC Heavy [2, 6]: 2.43 log base 2
3xMBT/D355N UNC Light [2, 6]: 3.06 log base 2

Relative to UNC0638 UNC Heavy [1, 5]: 0.34 log base 2
Relative to UNC0638 UNC Light [1, 5]: 0.14 log base 2
Relative to UNC0638 Average [1]: 0.24 log base 2
Substance: CHD4
3xMBT/D355N UNC Heavy [2, 6]: 2.24 log base 2
3xMBT/D355N UNC Light [2, 6]: 3.63 log base 2

Relative to UNC0638 UNC Heavy [1, 5]: 0.24 log base 2
Relative to UNC0638 UNC Light [1, 5]: 0.06 log base 2
Relative to UNC0638 Average [1]: 0.15 log base 2
Substance: CKAP5
3xMBT/D355N UNC Heavy [2, 6]: 2.10 log base 2
3xMBT/D355N UNC Light [2, 6]: 1.30 log base 2

Relative to UNC0638 UNC Heavy [1, 5]: 0.07 log base 2
Relative to UNC0638 UNC Light [1, 5]: 0.26 log base 2
Relative to UNC0638 Average [1]: 0.17 log base 2
Substance: CORO1C
3xMBT/D355N UNC Heavy [2, 6]: 2.83 log base 2
3xMBT/D355N UNC Light [2, 6]: 3.30 log base 2

Protein Ratios DMSO/UNC0638 [1]: 1.4
Substance: Clathrin heavy chain 1
Protein Ratios 3xMBT/D355N ([2]; SILAC ratio, 293T cells): 6.0

Relative to UNC0638 UNC Heavy [1, 5]: 0.14 log base 2
Relative to UNC0638 UNC Light [1, 5]: 0.22 log base 2
Relative to UNC0638 Average [1]: 0.18 log base 2
Substance: DDX6
3xMBT/D355N UNC Heavy [2, 6]: 3.18 log base 2
3xMBT/D355N UNC Light [2, 6]: 3.05 log base 2

Relative to UNC0638 UNC Heavy [1, 5]: 0.36 log base 2
Relative to UNC0638 UNC Light [1, 5]: 0.01 log base 2
Relative to UNC0638 Average [1]: 0.18 log base 2
Substance: DDX39A
3xMBT/D355N UNC Heavy [2, 6]: 2.00 log base 2
3xMBT/D355N UNC Light [2, 6]: 1.53 log base 2
